Data: US20250277030A1, “ANTI-NAPI2B ANTIBODIES AND METHODS OF USE” (Zymeworks BC Inc., priority 2022, published 2025)

Key:
[1] = AC-SINS self-aggregation propensity; format: physicochemical; conditions: 0.05 mg/mL in PBS pH 7.4; cutoff 10 nm = high self-aggregation propensity
Experimental: (§1) The isoelectric point was measured by capillary isoelectric focusing (cIEF), the propensity for self-aggregation was measured by Affinity-capture self-interaction nanoparticle spectroscopy (AC-SINS) and non-specific binding was measured by NS-ELISA, as described below.
AC-SINS method was carried out in a 384-well plate format (Corning®#3702). Initially, 20 nm gold nanoparticles (Ted Pella, Inc., #15705) washed with 0.22 μm filtered Gibco™ Distilled Water were coated with a mixture of capture antibody—80% AffiniPure Goat Anti-Human IgG (H+L) (Jackson ImmunoResearch Laboratories® #109-005-088), and the non-capture antibody −20% ChromPure Goat IgG, whole molecule (Jackson ImmunoResearch Laboratories® #005-000-003), that were initially buffer exchanged into 20 mM sodium acetate pH 4.3 and diluted to 0.4 mg/mL. […] The absorbance was read from 450-700 nm at 1 nm increments, and a Microsoft Excel macro was used to identify the max absorbance, smooth the data, and fit the data using a second-order polynomial. The Alambda (nm) was calculated based on the smoothed max absorbance of the average blank (PBS alone) subtracted from the smoothed max absorbance of the antibody sample to determine the antibody AC-SINS score. Antibody-antibody interactions directly correlate with the shift in maximum absorbance wavelength of gold nanoparticles coated with the antibody of interest. […]

[2] = test system: cynomolgus NaPi2b; experiment: Flow cytometry binding to HEK293-6e cells transfected with cynomolgus NaPi2b (Example 5); conditions: transfected HEK293-6e cells
Experimental: The binding cross-reactivity of humanized antibody variant v29456 to human, cynomolgus and mouse NaPi2b was assessed by flow cytometry using HEK293-6e transfected cells.
Briefly, HEK293-6e cells were transfected for ˜24 hours to transiently express human NaPi2b, cynomolgus or mouse NaPi2b, at 1 μg of DNA per 1 million cells. Following transfection, 50,000 cells per well were seeded in V-bottom 96-well plates and incubated with 200 nM of primary antibody for 18-24 hours at 4° C. to prevent internalization. Post-incubation, cells were washed and stained with anti-Human IgG Fc AF647 conjugate (Jackson Immuno Research Labs, West Grove, PA, Cat. No. 109-605-098, Lot. No. 124868) at 4° C. for 1 hour. Following staining and washing, fluorescence was detected by flow cytometry on BD LSRFortessa™ Cell Analyzer (BD Biosciences, Franklin Lake, NJ) with 10,000 minimum events collected per well. The AF647/APC-A GeoMean (fluorescence signal geometric mean, proportional to anti-Human AF647 binding) was calculated for the live singlet cell population for each primary antibody using FlowJo™ v8 software (BD Biosciences, Franklin Lake, NJ). The Bmax and Kd of each primary antibody were calculated using GraphPad Prism Version 9 (GraphPad Software, San Diego, CA)

[3] = test system: ssDNA; experiment: NS-ELISA non-specific binding, ssDNA; conditions: mAb at 100 nM
Experimental: as §1
NS-ELISA was used to measure the propensity of the antibodies to bind to a range of biomolecules to emulate the undesirable non-specific interactions to biological matrices in vivo as described below.
NS-ELISA was carried out in Corning®96-well EIA/RIA Easy Wash™ Clear Flat Bottom Polystyrene High Bind Microplate coated overnight at 4° C. with 50 μL of Heparin (Sigma, H3149) diluted with 50 mM sodium carbonate pH 9.6 to a final concentration of 250 μg/mL. The plate was incubated for 2 days at room temperature, wells that were coated with heparin were not covered to allow air dry. […] Reactions were stopped after approximately 10 minutes by adding 100 μL of 1 M HCl to each well, and absorbance was read at 450 nm. Binding scores were calculated as the ratio of the ELISA signal of the antibody (antibody-treated) to the signal of a well containing buffer instead of the primary antibody (untreated). The cutoffs considered for each binding molecule (ssDNA, KLH, insulin, dsDNA and heparin) were internally calculated, based on the average of Zymeworks Inc. produced antibodies and antibodies benchmarks published in the literature.

Chain of cynomolgus NaPi2b (as listed by the source): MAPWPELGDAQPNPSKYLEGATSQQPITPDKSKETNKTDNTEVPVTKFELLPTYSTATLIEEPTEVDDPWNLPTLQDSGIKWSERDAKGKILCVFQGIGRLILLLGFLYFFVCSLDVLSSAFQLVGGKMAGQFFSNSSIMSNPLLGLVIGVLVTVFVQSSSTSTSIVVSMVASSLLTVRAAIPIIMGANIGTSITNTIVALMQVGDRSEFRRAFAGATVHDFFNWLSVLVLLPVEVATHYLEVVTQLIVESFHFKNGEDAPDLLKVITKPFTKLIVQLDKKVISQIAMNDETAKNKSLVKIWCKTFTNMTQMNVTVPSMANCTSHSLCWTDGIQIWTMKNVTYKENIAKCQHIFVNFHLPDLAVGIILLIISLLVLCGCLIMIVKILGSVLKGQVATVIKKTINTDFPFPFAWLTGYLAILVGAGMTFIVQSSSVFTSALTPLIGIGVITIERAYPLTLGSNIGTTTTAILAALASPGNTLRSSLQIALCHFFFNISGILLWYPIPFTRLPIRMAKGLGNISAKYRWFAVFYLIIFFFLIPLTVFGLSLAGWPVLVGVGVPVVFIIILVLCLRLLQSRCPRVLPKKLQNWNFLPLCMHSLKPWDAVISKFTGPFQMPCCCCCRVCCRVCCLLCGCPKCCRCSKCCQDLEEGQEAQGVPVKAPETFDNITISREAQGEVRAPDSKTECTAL

NS-ELISA binding score (ratio of signal between antibody-treated and untreated), ssDNA [3]: 1.06
B1: v29456: humanized anti-NaPi2b IgG1/kappa antibody H1L2; VH SEQ ID NO:24, VL SEQ ID NO:29 (antibody, V domains shown)
VH: QVQLVQSGAEVKKPGASVKVSCKASGFTFTSYNVHWVRQAPGQGLEWMGAISPGNGDLSYAQKFQGRVTMTRDTSTSTVYMELSSLRSEDTAVYYCARGRTGMGAVDYWGQGTLVTVSS
VL: DVQMTQSPSSLSASVGDRVTITCRASQDVYSYLNWYQQKPGKAVKLLIYYTSRLQSGVPSRFSGSGSGTDYTLTISSLQPEDFATYYCQQYNIFPWTFGQGTKLEIK
modifications: v29452, v29456, v29460 VH (H1); v29453, v29454, v29455, v29456 VL (L2)
AC-SINS Δlambda (nm) [1]: 2.5 nm
apparent Kd on cynomolgus NaPi2b, fold lower than v18992 (MX35) [2]: 10 fold
Bmax (APC-A GeoMean), Cyno NaPi2b ([2]; 18-24 hours at 4° C.): 2,006 APC-A GeoMean
Kd ([2]; 18-24 hours at 4° C., highest antibody concentration 200 nM, read-out: Apparent Kd (nM), Cyno NaPi2b): 3.2 nM
